Results on one molecule are retold here after patent publication US20220332804A1 (CSL INNOVATION, published 2022).

Where a chain is given by its changes, count along the chain named.

What all share (experiment): SPR; KD relative to WT C2;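 further: biacore SPR at 37 °C, anti-C2 mAbs captured on an anti-human IgG chip, alanine or serine C2 surface mutants tested, KD from 1:1 fit compared with wild-type C2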
The target in one assay is T1, human C2 D454A (human, UniProt P06681 21-752).
T1 sequence: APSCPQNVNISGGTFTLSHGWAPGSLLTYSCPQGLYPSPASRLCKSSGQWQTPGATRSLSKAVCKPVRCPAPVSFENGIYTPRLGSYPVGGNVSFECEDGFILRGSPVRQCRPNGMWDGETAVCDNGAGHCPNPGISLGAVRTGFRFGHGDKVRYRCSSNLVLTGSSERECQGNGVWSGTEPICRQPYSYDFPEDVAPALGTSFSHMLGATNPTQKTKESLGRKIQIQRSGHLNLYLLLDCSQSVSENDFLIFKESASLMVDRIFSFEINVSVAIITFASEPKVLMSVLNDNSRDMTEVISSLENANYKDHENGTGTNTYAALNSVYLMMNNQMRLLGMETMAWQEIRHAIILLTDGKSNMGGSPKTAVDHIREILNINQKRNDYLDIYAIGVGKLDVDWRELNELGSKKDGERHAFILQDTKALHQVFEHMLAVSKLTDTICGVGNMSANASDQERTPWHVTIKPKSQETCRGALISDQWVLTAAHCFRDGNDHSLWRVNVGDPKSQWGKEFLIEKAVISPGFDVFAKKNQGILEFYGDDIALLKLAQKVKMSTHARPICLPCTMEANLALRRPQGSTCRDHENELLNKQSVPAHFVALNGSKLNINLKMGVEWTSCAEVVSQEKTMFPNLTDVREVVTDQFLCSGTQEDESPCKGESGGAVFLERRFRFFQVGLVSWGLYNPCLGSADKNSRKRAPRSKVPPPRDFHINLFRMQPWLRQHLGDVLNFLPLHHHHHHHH

A further assay addresses T2, human C2 Q447A (human, UniProt P06681 21-752).
T2 sequence: T1 sequence with Q427A, A434D

A further assay deals with T3, human C2 G466A (human, UniProt P06681 21-752).
T3 sequence: T1 sequence with A434D, G446A

Another assay addresses T4, human C2 A444S (human, UniProt P06681 21-752).
T4 sequence: T1 sequence with A424S, A434D

Method for human C2 A444S: (§1) Surface plasmon resonance (SPR, Biacore) was used for all binding affinity analyses. In brief, goat anti-human IgG was directly immobilised onto the carboxymethyl dextran surface of CM5 sensorchips to approximately 12,000 RU using standard NHS/EDC chemistry at pH 5. The immobilised antibody surface was pre-conditioned with ten injections of polyclonal human IgG (Privigen 60 s) prepared at 1 μg/mL. Ligands (anti-C2 mAbs) were captured at the beginning of each cycle as described below. An adjacent spot or flow cell in which only Polyclonal IgG was capture was used as a reference surface. The goat anti-human IgG Fc antibody surface was regenerate in 100 mM H3PO4, injected for 45 seconds at the end of each cycle. Experiments were performed at 37° C. and the flow rate of each experiment was kept constant at 30 μL/min.
(§2) Sensogram data was double-referenced against a reference anti-IgG surface (i.e. minus anti-C2 mAb) and blank buffer injections obtained within each experiment. The binding data was fit to 1:1 (kinetic or steady-state) model using local Rmax and null refraction index (RI=0) when appropriate. Buffers and solutions were filtered (0.22 μm) prior to use.
(§3) The C2 mutants were designed to test the importance of surface exposed residues for antibody binding. Residues located at either the N-terminal VWA domain or C-terminal protease domain of C were replaced by either alanine or serine and tested for binding against anti-C2 antibodies.
Method for human C2 D454A: as §1, §2, §3
Method for human C2 G466A: as §1, §2, §3
Method for human C2 Q447A: as §1, §2, §3

B1: RF16-214 (antibody, V domains shown)
VH: EVQLLESGGGLVQPGGSLRLSCAASGFTFSWYQMMWVRQAPGKGLEWVSRIYPSGGGTAYADSVKGRFTISRDNSKNTLYLQMNSLRAEDTAVYYCARDAGYGDNWGQGTLVTVSS
VL: QSALTQPPSVSVSPGQTASITCSGDKLGEKYASWYQQKAGQSPVMVIYQDRKRPSGIPERFSGSNSGNTATLTISGTQAMDEADYYCQAWDTRAVVFGGGTKLTVLG
B1: the Fold diff with human C2 D454A amounted to 4 fold; with human C2 Q447A, 4 fold; with human C2 G466A it was 5 fold; in the assay with human C2 A444S it was 1 fold.
